# Patent US11655492B2, “Activated formylglycine-generating enzymes and methods of producing and using the same” (R.P. Scherer Technologies, LLC, priority 2015, dated 2023)
# Values joined by “and” are separate entries in the source; they are usually repeats but may differ in a detail not shown here. Equal entries are not always repeated. Where two headings read alike, the source gives them in different places.
# T1: recombinant human FGE (Homo sapiens, UniProt Q8NBK3)
# T1 sequence (Q8NBK3 34-374): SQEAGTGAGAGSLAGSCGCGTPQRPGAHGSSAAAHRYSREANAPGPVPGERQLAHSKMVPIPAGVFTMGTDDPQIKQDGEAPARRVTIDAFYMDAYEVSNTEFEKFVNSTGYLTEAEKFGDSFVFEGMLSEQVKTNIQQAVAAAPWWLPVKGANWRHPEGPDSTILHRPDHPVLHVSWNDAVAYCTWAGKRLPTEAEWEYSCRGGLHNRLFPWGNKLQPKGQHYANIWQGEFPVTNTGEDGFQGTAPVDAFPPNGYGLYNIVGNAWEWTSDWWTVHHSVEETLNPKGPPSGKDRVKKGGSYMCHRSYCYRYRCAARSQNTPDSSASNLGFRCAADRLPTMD
# B1: Sc-FGE: Streptomyces coelicolor formylglycine-generating enzyme, UniProt Q9F3C7, N-terminal hexahistidine tag, expressed in E. coli (protein)
# chain: MAVAAPSPAAAAEPGPAARPRSTRGQVRLPGGEFAMGDAFGEGYPADGETPVHTVRLRPFHIDETAVTNARFAAFVKATGHVTDAERFGSSAVFHLVVAAPDADVLGSAAGAPWWINVRGAHWRRPEGARSDITGRPNHPVVHVSWNDATAYARWAGKRLPTEAEWEYAARGGLAGRRYAWGDELTPGGRWRCNIWQGRFPHVNTAEDGHLSTAPVKSYRPNGHGLWNTAGNVWEWCSDWFSPTYYAESPTVDPHGPGTGAARVLRGGSYLCHDSYCNRYRVAARSSNTPDSSSGNLGFRCANDADLTSGSAAE
# modifications: left off: small tags and cut ends
# notes: Streptomyces coelicolor formylglycine-generating enzyme, UniProt Q9F3C7, N-terminal hexahistidine tag, expressed in E. coli
# B2: Hs-FGE: full length wild-type human FGE containing the N-terminal extension and the core, UniProt Q8NBK3 (protein, UniProt Q8NBK3 1-374, looked up)
# chain: MAAPALGLVCGRCPELGLVLLLLLLSLLCGAAGSQEAGTGAGAGSLAGSCGCGTPQRPGAHGSSAAAHRYSREANAPGPVPGERQLAHSKMVPIPAGVFTMGTDDPQIKQDGEAPARRVTIDAFYMDAYEVSNTEFEKFVNSTGYLTEAEKFGDSFVFEGMLSEQVKTNIQQAVAAAPWWLPVKGANWRHPEGPDSTILHRPDHPVLHVSWNDAVAYCTWAGKRLPTEAEWEYSCRGGLHNRLFPWGNKLQPKGQHYANIWQGEFPVTNTGEDGFQGTAPVDAFPPNGYGLYNIVGNAWEWTSDWWTVHHSVEETLNPKGPPSGKDRVKKGGSYMCHRSYCYRYRCAARSQNTPDSSASNLGFRCAADRLPTMD
# modifications: full-length
# notes: full length wild-type human FGE containing the N-terminal extension and the core, UniProt Q8NBK3
# B3: +KDEL: full-length human FGE with an N-terminal KDEL (SEQ ID NO:7) amino acid sequence (protein, UniProt Q8NBK3 1-374, looked up)
# chain: MAAPALGLVCGRCPELGLVLLLLLLSLLCGAAGSQEAGTGAGAGSLAGSCGCGTPQRPGAHGSSAAAHRYSREANAPGPVPGERQLAHSKMVPIPAGVFTMGTDDPQIKQDGEAPARRVTIDAFYMDAYEVSNTEFEKFVNSTGYLTEAEKFGDSFVFEGMLSEQVKTNIQQAVAAAPWWLPVKGANWRHPEGPDSTILHRPDHPVLHVSWNDAVAYCTWAGKRLPTEAEWEYSCRGGLHNRLFPWGNKLQPKGQHYANIWQGEFPVTNTGEDGFQGTAPVDAFPPNGYGLYNIVGNAWEWTSDWWTVHHSVEETLNPKGPPSGKDRVKKGGSYMCHRSYCYRYRCAARSQNTPDSSASNLGFRCAADRLPTMD
# modifications: full-length N-terminal KDEL
# B4: myc His: human FGE C-terminally tagged with myc-His (pRW529) (protein, UniProt Q8NBK3 34-374, looked up)
# Formylglycine-generating …: SQEAGTGAGAGSLAGSCGCGTPQRPGAHGSSAAAHRYSREANAPGPVPGERQLAHSKMVPIPAGVFTMGTDDPQIKQDGEAPARRVTIDAFYMDAYEVSNTEFEKFVNSTGYLTEAEKFGDSFVFEGMLSEQVKTNIQQAVAAAPWWLPVKGANWRHPEGPDSTILHRPDHPVLHVSWNDAVAYCTWAGKRLPTEAEWEYSCRGGLHNRLFPWGNKLQPKGQHYANIWQGEFPVTNTGEDGFQGTAPVDAFPPNGYGLYNIVGNAWEWTSDWWTVHHSVEETLNPKGPPSGKDRVKKGGSYMCHRSYCYRYRCAARSQNTPDSSASNLGFRCAADRLPTMD
# modifications: C-terminal myc-His tag
# B5: WT: WT form of human FGE, non-KDEL (protein, UniProt Q8NBK3 34-374, looked up)
# Formylglycine-generating …: SQEAGTGAGAGSLAGSCGCGTPQRPGAHGSSAAAHRYSREANAPGPVPGERQLAHSKMVPIPAGVFTMGTDDPQIKQDGEAPARRVTIDAFYMDAYEVSNTEFEKFVNSTGYLTEAEKFGDSFVFEGMLSEQVKTNIQQAVAAAPWWLPVKGANWRHPEGPDSTILHRPDHPVLHVSWNDAVAYCTWAGKRLPTEAEWEYSCRGGLHNRLFPWGNKLQPKGQHYANIWQGEFPVTNTGEDGFQGTAPVDAFPPNGYGLYNIVGNAWEWTSDWWTVHHSVEETLNPKGPPSGKDRVKKGGSYMCHRSYCYRYRCAARSQNTPDSSASNLGFRCAADRLPTMD
# Columns and labels:
# recombinant human FGE = biological target: T1, recombinant human FGE; assay: In vivo conversion in CHO cells expressing recombinant human FGE and αHER2 mAb, additives in culture medium
# Experimental: The effect on conversion in the presence of Cu^2+ (copper sulfate) in the cell culture medium of mammalian cells expressing FGEs and proteins that include FGE recognition sites was investigated. CHO cells expressing a recombinant human FGE and recombinant αHER2 mAb (heavy and light chain in same cell) containing the FGE recognition sequence LCTPSR (SEQ ID NO:4) were cultured FortiCHO media with the CellBoost4 feed, Efficient Feed C, and Efficient Feed C, supplemented with glucose and/or galactose.
# The experimental conditions were the same as those used in the Cu^2+ experiments above.
# Sc-FGE = Sc-FGE (Streptomyces coelicolor, UniProt Q9F3C7); assay type: biochemical, S. coelicolor
# [1] = system: 14 amino acid peptide ALCTPSRGSLFTGR (SEQ ID NO:8); assay: Discontinuous FGE activity assay on peptide substrate (RP-HPLC); assay type: biochemical
# Experimental: [formula] where Et is the total enzyme in solution, and kcat and KM are the standard enzymatic parameters specified by the STRENDA commission. Units of enzyme specific activity are the katal, where 1 kat=1 mol·s^−1. Kinetic parameters were determined from nonlinear regression of [substrate] v. initial velocity using GraphPad prism.
# The specific activity of FGE was measuring using a discontinuous enzymatic activity assay. The substrate for FGE was a 14 amino acid peptide containing the consensus sequence (H2N-[…]-COOH (SEQ ID NO:8)). The rate of reaction was determined by integrating the peak area at 215 nm of the starting material (Cys) and product (fGly) containing peptides on reversed-phase HPLC. The identity of product (and side product) peaks were determined by RP-HPLC MS/MS. Each aqueous reaction solution (60 μL) contained substrate peptide (100 μM), FGE (1 μM), DTT (1 mM), and buffer (25 mM triethanolamine, pH 9). A single time course consisted of 5 data points collected every 2 minutes. The reaction was initiated upon addition of FGE stock solution and vortexing for 3 s. Time points were quenched by diluting 10 μL of reaction mixture into 1 μL of 1 M HCl by hand with a micropipettor. After completion of the reaction, each time point was analyzed by RP-HPLC.
# (§1) Substrate, product, and side products of the FGE substrate peptide […] (SEQ ID NO:8) were separated on RP-HPLC over 7 min with isocratic 18% MeCN in water containing 0.1% TFA. The integrated area of the fGly (2.1 min), Cys (3.3 min), βME-DS (3.6 min), and Cys-DS (6.2 min) forms of the substrate were used to calculate total area and each fraction thereof.
# The specific activity of FGE was measured using a discontinuous enzymatic activity assay. The substrate for FGE was a 14 amino acid peptide containing the CXPXR consensus sequence ([…] (SEQ ID NO:8)). The rate of reaction was determined by integrating the peak areas at 215 nm of the substrate cysteine (Csub) and product (fGly) peptides on reversed-phase HPLC. The identities of product (and side product) peaks were determined by RP-HPLC MS/MS (see below). Each aqueous reaction solution (120 μL) contained Csub (100 μM), FGE (0.1-1 μM), DTT (1 mM), and buffer (25 mM TEAM, pH 9). A single time course included 5 data points collected at evenly spaced intervals. The reaction was initiated upon addition of FGE stock solution and vortexing for 3 s. The reaction vial was vortexed at 1,500 RPM and 25° C. in a thermomixer R (Eppendorf). Time points were hand quenched by adding 20 μL of reaction mixture to 2 μL of 1 M HCl using a micropipettor. After completion of the reaction, each time point was analyzed by RP-HPLC (see below).
# as §1, with “integrated areas” for “integrated area”, “min), Csub” for “min), Cys”, “min), the Csub/βME disulfide (Csub-βME, 3.6” for “min), βME-DS (3.6”, “and substrate/substrate disulfide (Csub-Csub, 6.1” for “and Cys-DS (6.2”
# Individual FGE reactions were initiated by rapidly mixing FGE into a premixed buffered solution of Csub and reducing agent. It was assumed that all buffered solutions contained oxygen at ˜270 μM at 25° C. (based upon Henry's law). Time points were chemically quenched by hand with HCl. […]. The identities of both the Cys- and fGly-containing peptides were confirmed by LC-MS/MS (FIG. 11). These assignments were then correlated with HPLC retention times (FIG. 14, panel a). The integrated peak areas of substrate and product were used to calculate the initial velocity of FGE (FIG. 14, panel b) using the method described by Boeker (Biochem. J., (1984), 223, 15; and Biochem. J., (1985), 226, 29).
# CT-1.1 tagged Her2 = assay: 293 Expi transient co-transfection of FGE form and CT tagged antibody, conversion by mass-spectrometry; assay type: cell-based; conditions: Expi 293F, FGE form co-transfected with Her2 CT1.1, harvest day 5-6
# Experimental: A 293 Expi transient co-transfection system (Life Technologies) was used for producing antibodies having a formylglycine residue at a selected site. The system produced high antibody titers (100-500 mg/L) with variable (10-95%) conversion. […] Expi 293F that were treated with or without 50 μM copper sulfate prior to transfection were transiently co-transfected in three independent experiments with expression plasmids for full-length human FGE with an N-terminal KDEL (SEQ ID NO:7) amino acid sequence (+KDEL) and CT tagged antibody at a ratio of 3:1 antibody:FGE DNA. The culture was harvested at 5-6 days post transfection, titer assessed by ELISA, and the protein was purified and conversion was measured by mass-spectrometry.
# Expi 293F cells that were treated with or without 50 μM copper sulfate prior to transfection were transiently co-transfected with expression plasmids for various forms of human FGE (+KDEL, WT, myc-His) and CT tagged antibody at a ratio of 3:1 antibody:FGE DNA. The culture was harvested at 5 days post transfection, titer assessed by ELISA, the protein was purified and conversion was measured by mass-spectrometry.
# [2] = other ion sources: iron sulfate 0.1 mM or 0.5 mM Day 3, MnCl2 50 uM or 10 uM Day 0, ZnCl2 50 uM Day 0
# [3] = as purified from cell culture, not activated
# [4] = nonlinear regression to Michaelis-Menten equation
molecule,measurement,setting,value
"O=S(=O)([O-])[O-].[Fe+2] [iron sulfate, iron(II) sulfate]",effect on conversion of the target polypeptide,recombinant human FGE,did not effect a detectable or significant increase
"O=C1O[C@H]([C@@H](O)CO)C(=O)C1=O [DHAA, (L)-dehydroascorbic acid]",effect of pretreatment on specific activity,Sc-FGE,did not change
[Cl-].[Cl-].[Zn+2] [ZnCl2],effect on conversion of the target polypeptide,recombinant human FGE; [2],did not effect a detectable or significant increase
CC(O)C(=O)O (centres unmarked) [lactate],effect on conversion efficiency of the FGE,"recombinant human FGE; potential stimulators of lactate consumption, lactate or pyruvate 1.5 g/L with feeds",did not increase conversion efficiency
[Cl][Mn][Cl] [MnCl2],effect on conversion of the target polypeptide,recombinant human FGE; [2],did not effect a detectable or significant increase
B1,increase of specific activity on activation,[1],more than an order of magnitude
same,specific activity,[1],3579±215 pkat·mg^−1
same,specific activity,[1]; [3],214 pkat·mg^−1 and 214±34 pkat·mg^−1
same,Km,[1]; [4],96 µM
same,kcat,[1]; [4],0.288 s⁻¹
B2,specific activity,[1]; [3],850 pkat·mg^−1
B3,Conversion (%),CT-1.1 tagged Her2; copper sulfate 0 μM,72% and 47% and 78% and 62%
same,Conversion (%),CT-1.1 tagged Her2; copper sulfate 50 μM at Day 0,93% and 94% and 95% and 88%
B4,Conversion (%),CT-1.1 tagged Her2; copper sulfate 50 μM at Day 0,78% and 94%
same,specific activity of FGE isolated from Cu^2+ treated cells vs untreated cells,[1],significantly higher activity
B5,Conversion (%),CT-1.1 tagged Her2; copper sulfate 0 μM,77%
same,Conversion (%),CT-1.1 tagged Her2; copper sulfate 50 μM at Day 0,86%
